In patent US20250346890A1, “LEUKEMIA TREATMENT” (Deutsches Krebsforschungszentrum, priority 2019, published 2025):

Assays:
ID1 = experiment: qRT-PCR analysis of ID1 in HEPG2 cells; type: cell-based, human; settings: BMP4
Protocol: Cultured cells were lysed in Macherey-Nagel RAI buffer containing 1% β-mercaptoethanol and total RNAs were isolated using NucleoSpin RNA isolation kit (Macherey-Nagel 740955). Reverse transcription and PCR amplification were performed. Primers used in this study are listed in Supplementary Table 1. Graphs show relative gene expressions to GAPDH. […] Statistical analyses were performed using PRISM7 software with unpaired t-test or one-way ANOVA test.

ALK3 = target: T1, ALK3 (Homo sapiens, UniProt P36894); experiment: Cell surface binding assay in HEK293T cells transfected with ALK3
T1 construct: expressed in transfected cells; host or cells: HEK293T
Protocol: (§1) Cell surface binding assays were carried essentially out as previously described (Dosch et al. (1997), Development 124, 2325-2334). In brief, human ALK3-HA and Xenopus tropicalis LGR4 DNA were transfected in HEK293T cells, and incubated with 1.5 U ml^−1 conditioned media for 3 hours on ice. After several washes and crosslinking, cells were treated with 2 mM Levamisole for 20 min to inactivate endogenous AP activities and developed with BM-Purple (Sigma 11442074001). Cells were mounted with Fluoromount G. Images were obtained using LEICA DMIL microscope/Canon DS126311 camera.

LGR4 = target: T2, LGR4 (Xenopus tropicalis, UniProt B0BLW3); experiment: Cell surface binding assay in HEK293T cells transfected with LGR4
T2 construct: expressed in transfected cells; host or cells: HEK293T
T2 sequence (B0BLW3 22-955): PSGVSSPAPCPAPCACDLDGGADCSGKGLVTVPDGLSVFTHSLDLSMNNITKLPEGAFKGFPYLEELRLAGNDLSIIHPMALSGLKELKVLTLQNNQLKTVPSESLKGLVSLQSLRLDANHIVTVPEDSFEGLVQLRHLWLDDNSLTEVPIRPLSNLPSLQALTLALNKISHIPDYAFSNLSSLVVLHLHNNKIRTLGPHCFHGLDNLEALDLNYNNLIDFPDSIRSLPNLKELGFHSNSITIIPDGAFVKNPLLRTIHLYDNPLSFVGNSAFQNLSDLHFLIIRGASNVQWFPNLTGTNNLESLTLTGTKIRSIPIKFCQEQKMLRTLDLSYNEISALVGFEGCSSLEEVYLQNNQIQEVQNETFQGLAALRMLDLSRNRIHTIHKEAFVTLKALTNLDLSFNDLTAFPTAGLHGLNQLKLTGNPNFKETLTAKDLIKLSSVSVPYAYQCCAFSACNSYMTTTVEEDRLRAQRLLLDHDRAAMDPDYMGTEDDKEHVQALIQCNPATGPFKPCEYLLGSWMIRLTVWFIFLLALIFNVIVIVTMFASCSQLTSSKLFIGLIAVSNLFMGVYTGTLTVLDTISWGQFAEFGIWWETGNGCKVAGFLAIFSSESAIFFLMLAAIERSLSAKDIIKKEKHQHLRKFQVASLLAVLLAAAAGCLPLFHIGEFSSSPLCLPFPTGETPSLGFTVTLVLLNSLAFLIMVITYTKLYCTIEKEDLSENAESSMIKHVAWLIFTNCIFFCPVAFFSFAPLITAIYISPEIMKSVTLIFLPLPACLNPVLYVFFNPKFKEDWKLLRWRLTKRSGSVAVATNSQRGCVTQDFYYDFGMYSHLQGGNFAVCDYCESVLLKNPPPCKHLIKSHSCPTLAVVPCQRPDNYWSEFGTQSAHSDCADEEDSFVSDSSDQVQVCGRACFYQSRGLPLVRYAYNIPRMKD
Protocol: as §1

ZNRF3 and ALK3^ECD = target: T3, ZNRF3 and ALK3^ECD (Homo sapiens, UniProt P36894+Q9ULT6); experiment: In vitro binding assay for ZNRF3 and ALK3^ECD; settings: plates coated with ZNRF3 Fc, ALK3^ECD-AP preincubated with the protein
T3 construct: purchased R&D systems 7994-RF
Protocol: High binding 96-well plates (Greiner M5811) were coated with 2 μg ml^−1 of recombinant human RSPO1 (Peprotech 120-38), RSPO2 (Peprotech 120-43), RSPO3 (Peprotech 120-44) or FGF8b (Peprotech 100-25) recombinant protein reconstituted in bicarbonate coating buffer (50 mM NaHCO3, pH 9.6) overnight at 4° C. Coated wells were washed three times with TBST (TBS, 0.1% Tween-20) and blocked with 5% BSA in TBST for 1 hour at room temperature. 1.5 U ml^−1 of ALK3^ECD-AP or control conditioned medium was incubated overnight at 4° C. Wells were washed six times with TBST and bound AP activity was measured by the chemiluminescent SEAP Reporter Gene Assay kit (Abcam ab 133077). For ZNRF3-ALK3 binding assay, plates were coated with recombinant human ZNRF3 Fc Chimera protein (R&D systems 7994-RF). ALK3^ECD-AP was preincubated with RSPO2-Flag, RSPO2^ΔTSP-Flag conditioned medium or recombinant RSPO protein prior to treatment. Control conditioned medium and vesicles were used as control. […] Statistical analyses show unpaired t-tests.

T1 sequence (P36894 24-532): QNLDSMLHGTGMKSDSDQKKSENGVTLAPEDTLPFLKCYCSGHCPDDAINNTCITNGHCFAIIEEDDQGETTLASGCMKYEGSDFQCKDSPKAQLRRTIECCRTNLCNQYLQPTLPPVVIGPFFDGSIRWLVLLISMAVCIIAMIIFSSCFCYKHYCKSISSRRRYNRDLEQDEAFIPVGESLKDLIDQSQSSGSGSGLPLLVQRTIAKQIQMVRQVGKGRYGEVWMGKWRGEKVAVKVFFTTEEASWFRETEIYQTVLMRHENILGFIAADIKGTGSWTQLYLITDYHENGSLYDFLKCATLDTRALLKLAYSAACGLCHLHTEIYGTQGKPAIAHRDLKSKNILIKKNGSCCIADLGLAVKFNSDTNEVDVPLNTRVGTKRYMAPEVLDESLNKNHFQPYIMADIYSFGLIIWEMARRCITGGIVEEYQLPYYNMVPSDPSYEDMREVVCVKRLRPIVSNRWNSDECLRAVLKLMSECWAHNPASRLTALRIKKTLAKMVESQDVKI
T3 sequence (Q9ULT6 56-219 limits assumed): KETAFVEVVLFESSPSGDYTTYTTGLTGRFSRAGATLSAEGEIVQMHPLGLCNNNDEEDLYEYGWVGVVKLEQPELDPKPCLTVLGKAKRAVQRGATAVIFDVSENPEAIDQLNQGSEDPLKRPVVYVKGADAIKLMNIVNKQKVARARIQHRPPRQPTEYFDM
T3 sequence (P36894 24-152 limits assumed): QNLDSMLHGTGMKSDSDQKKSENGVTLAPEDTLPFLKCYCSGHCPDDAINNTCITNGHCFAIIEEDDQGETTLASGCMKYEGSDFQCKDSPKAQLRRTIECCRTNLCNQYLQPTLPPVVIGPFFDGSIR

B1: RSPO2: human R-spondin 2 protein (SEQ ID NO:1); conditioned medium or recombinant (Peprotech 120-43) (protein, listed as Homo sapiens)
chain: MQFRLFSFALIILNCMDYSHCQGNRWRRSKRASYVSNPICKGCLSCSKDNGCSRCQQKLFFFLRREGMRQYGECLHSCPSGYYGHRAPDMNRCARCRIENCDSCFSKDFCTKCKVGFYLHRGRCFDECPDGFAPLEETMECVEGCEVGHWSEWGTCSRNNRTCGFKWGLETRTRQIVKKPVKDTILCPTIAESRRCKMTMRHCPGGKRTPKAKEKRNKKKKRKLIERAQEQHSVFLATDRANQ
expression of ID1 (ID1): decreased
ALK3 binding (ALK3): required the TSP1—but not the FU domains
LGR binding (LGR4): required the FU domains but not TSP1
ZNRF3 interaction with ALK3 in the presence of the protein (ZNRF3 and ALK3^ECD): interacted with ALK3
